According to patent US20260265334A1, “STAPLED PEPTIDES” (THE FLOREY INSTITUTE OF NEUROSCIENCE AND MENTAL HEALTH, priority 2023, published 2026):
Where two headings read alike, the source gives them in different places. Bridge positions count the residues as written; N and C are the ends. Square brackets hold non-standard residues; d marks the D form. Ends that are not written are not given here. Peptide text beside a SMILES is read from it. I, II: the chains in the order shown. ξ: configuration not given here. αMeF = C[C@](N)(Cc1ccccc1)C(=O)O; S5 = C=CCCC[C@](C)(N)C(=O)O; αMeC = C[C@](N)(CS)C(=O)O; ξF = NC(Cc1ccccc1)C(=O)O

Experiments:
RXFP4 [1] = target: T1, RXFP4 (Homo sapiens, UniProt Q8TDU9); assay: Inhibition of forskolin-induced cAMP activity in CHO-K1-RXFP4 cells (pCRE β-galactosidase reporter); assay type: cell-based; design: expressed in transfected cells; settings: for cAMP pEC50: RXFP4, CHO-K1-RXFP4 cells, 1 μM forskolin, 6 hours, Table 3
Method: For agonist assays, cells were stimulated with forskolin (5 μM for RXFP3, 1 μM for RXFP4)±increasing concentrations of each peptide for 6 hours. Data were expressed as the % forskolin activity, whereby 100% was defined as forskolin alone and 0% as maximum agonist stimulation (1 μM Analogue 2 for RXFP3 and 1 μM Analogue 13 for RXFP4). Data were analysed and plotted using GraphPad Prism 9 and are expressed as the mean±SEM of the pooled data. Statistical analysis was conducted using one-way ANOVA with Uncorrected Fisher's LSD post-hoc analysis using GraphPad Prism 9.
(§1) An additional analogue of INSL5 was utilised as a control, INSL5-A13, having an A chain (SEQ ID NO: 9) and a B chain (SEQ ID NO: 10) with a first disulfide bond between Cys 1 of the A chain and Cys 7 of the B chain, and a second disulfide bond between Cys 14 of the A chain and Cys 19 of the B chain:
(§2) Competition binding and cAMP activity assay were conducted by a procedure analogous to that described above for Example 3. The results are shown in FIG. 24 (RXFP3) and FIG. 25 (RXFP4).

RXFP3 [2] = target: T2, RXFP3 (Homo sapiens, UniProt Q9NSD7); assay: Inhibition of forskolin-induced cAMP activity in CHO-K1-RXFP3 cells (pCRE β-galactosidase reporter); assay type: cell-based; settings: 5 μM forskolin, 6 hours
T2 construct: expressed in transfected cells
T2 sequence (Q9NSD7 1-469): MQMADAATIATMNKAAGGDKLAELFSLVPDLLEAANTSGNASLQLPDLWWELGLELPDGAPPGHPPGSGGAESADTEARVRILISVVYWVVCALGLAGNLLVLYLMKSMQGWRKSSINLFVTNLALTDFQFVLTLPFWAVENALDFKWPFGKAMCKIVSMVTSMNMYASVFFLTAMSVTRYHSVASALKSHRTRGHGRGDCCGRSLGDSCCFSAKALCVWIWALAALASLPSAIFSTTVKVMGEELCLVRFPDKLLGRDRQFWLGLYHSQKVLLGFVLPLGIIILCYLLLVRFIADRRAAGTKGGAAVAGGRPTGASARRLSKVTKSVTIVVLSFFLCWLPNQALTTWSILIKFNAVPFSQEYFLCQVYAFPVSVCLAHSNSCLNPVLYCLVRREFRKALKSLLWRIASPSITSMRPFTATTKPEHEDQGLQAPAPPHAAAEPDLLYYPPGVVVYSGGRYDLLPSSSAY
Method: Since RXFP3 is coupled to Gi/o proteins, peptides were tested for their ability to activate RXFP3 as measured via their ability to inhibit forskolin-induced cAMP activity in CHO-K1-RXFP3 or CHO-K1-RXFP4 cells transfected with a pCRE (cAMP Response Element) β-galactosidase reporter plasmid (as described in Belgi, A et al., Structure and function relationship of murine insulin-like peptide 5 (INSL5): free C-terminus is essential for RXFP4 receptor binding and activation. Biochemistry 2011, 50 (39), 8352-61; and Haugaard-Kedstrom, L. M et al., Synthesis and pharmacological characterization of a europium-labelled single-chain antagonist for binding studies of the relaxin-3 receptor RXFP3. Amino Acids 2015, 47 (6), 1267-71). For agonist assays, cells were stimulated with forskolin (5 μM for RXFP3, 1 μM for RXFP4)±increasing concentrations of each peptide for 6 hours. Data were expressed as the % forskolin activity, whereby 100% was defined as forskolin alone and 0% as maximum agonist stimulation (1 μM Analogue 2 for RXFP3 and 1 μM Analogue 13 for RXFP4). Data were analysed and plotted using GraphPad Prism 9 and are expressed as the mean±SEM of the pooled data. Statistical analysis was conducted using one-way ANOVA with Uncorrected Fisher's LSD post-hoc analysis using GraphPad Prism 9.
as §2

RXFP4 [3] = target: T1, RXFP4; assay: Eu-R3/I5 competition binding assay in CHO-K1-RXFP4 cells; design: expressed in transfected cells
Method: An Eu-R3/15 competition binding assay in CHO-K1-RXFP4 cells was carried out.
(§3) Competition binding curves for each peptide were performed in triplicate and each experiment was performed independently at least three times. Fluorescent measurements were carried out at excitation of 340 nm and emission of 614 nm on a BMG POLARstar plate reader (BMG Labtech, Melbourne, Australia). Pooled data were presented as mean±S.E.M. of specific binding and are fitted using a one-site binding curve in GraphPad Prism version 8 (GraphPad Inc., San Diego, USA). Statistical analyses were conducted using one-way analysis of variance with uncorrected Fisher's least significant difference (LSD) post-hoc analysis in GraphPad Prism version 9.
as §1, §2

RXFP3 [4] = target: T2, RXFP3; assay: Eu-H3B1-22R competition binding assay in CHO-K1-RXFP3 cells; settings: 5 nM Eu-H3B1-22R, mean ± SEM (n)
Method: An Eu-H3B1-22R competition binding assay was conducted in CHO-K1-RXFP3 cells.
as §3, §2

[5] = target: T3, RXFP4 (relaxin family peptide receptor 4) on CHO-K1-RXFP4 cells (UniProt Q8TDU9 1-374, limits assumed); assay: cell-based or functional assay
[6] = target: T3, RXFP4 (relaxin family peptide receptor …); assay: competition with Eu-R3/I5 on CHO-K1-RXFP4 cells
[7] = target: T4, LgBiT-RXFP4 (HEK-LgBiT-RXFP4 crude membrane fractions) (UniProt Q8TDU9 1-374); assay: NanoBiT competition with 2 nM SmBiT-R3/I5 on HEK-LgBiT-RXFP4 membranes
T4 construct: Assayed as crude membrane fractions (25 µg protein) of HEK cells; not shown: LgBiT tag of NanoBiT

[8] = target: T3, RXFP4 (relaxin family peptide receptor …); assay: competition with Eu-R3/I5 on CHO-K1-RXFP4 cells; remark: listed apart in the source
[9] = target: T5, RXFP3 (relaxin family peptide receptor 3) on CHO-K1-RXFP3 cells (UniProt Q9NSD7 1-469, limits assumed); assay: competition with Eu-H3B1-22R on CHO-K1-RXFP3 cells
T5 construct: whole, on cells; also called GPCR135
T5 sequence (looked up): T2 sequence (Q9NSD7 1-469)

T4 sequence (Q8TDU9 whole entry): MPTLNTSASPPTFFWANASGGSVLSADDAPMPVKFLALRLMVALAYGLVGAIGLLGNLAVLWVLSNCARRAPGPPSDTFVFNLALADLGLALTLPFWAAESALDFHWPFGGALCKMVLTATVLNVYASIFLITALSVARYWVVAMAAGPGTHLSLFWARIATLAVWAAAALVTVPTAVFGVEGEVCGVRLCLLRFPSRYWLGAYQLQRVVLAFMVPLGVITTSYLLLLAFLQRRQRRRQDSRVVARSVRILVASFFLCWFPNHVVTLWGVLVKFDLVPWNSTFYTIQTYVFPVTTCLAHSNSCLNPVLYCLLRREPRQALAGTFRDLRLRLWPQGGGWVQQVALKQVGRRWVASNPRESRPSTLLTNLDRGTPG
T1 sequence (Q8TDU9 whole entry): as above
T3 sequence (Q8TDU9 whole entry): as above

CC[C@H](C)[C@H](NC(=O)[C@H](Cc1ccccc1)NC(=O)C(Cc1ccccc1)NC(=O)[C@H](CCCNC(=N)N)NC(=O)CNC(=O)[C@@H](N)CO)C(=O)N[C@@H](CCCNC(=N)N)C(=O)NC(Cc1ccccc1)C(=O)N[C@H](C(=O)N[C@H](C(=O)N[C@@H](Cc1ccccc1)C(=O)N[C@H](C(=O)N[C@@H](CO)C(=O)NCC(=O)NCC(=O)N[C@@H](CO)C(=O)N[C@@H](CCCNC(=N)N)C(=O)N[C@@H](Cc1c[nH]c2ccccc12)C(=O)O)[C@@H](C)O)[C@@H](C)CC)C(C)C (stereo partly drawn) [H3B10-27(13/17F)] (H-SGR[ξF]FIR[ξF]VIFTSGGSRW-OH; N-terminus assumed)
cAMP pEC50 (RXFP4 [1]): No activity (4)
EC50 (RXFP3 [2]; Table 2, read-out: cAMP pEC50 (converted)): > 10000 nM
Eu-R3/I5 pKi (RXFP4 [3]; RXFP4, CHO-K1-RXFP4 cells, 5 nM Eu-R3/I5, Table 3): No binding (3)
Ki (RXFP3 [4]; Table 2, read-out: Eu-H3B1-22R pKi (converted)): > 10000 nM

CC[C@H](C)[C@H](NC(=O)[C@H](Cc1ccc(O)cc1)NC(=O)[C@@H](NC(=O)[C@@H](NC(=O)[C@]1(C)CSSC[C@](C)(NC(=O)[C@H](CC(C)C)NC(=O)CNC(=O)[C@H](CO)NC(C)=O)C(=O)N[C@@H](Cc2ccc(O)cc2)C(=O)N[C@@H]([C@@H](C)CC)C(=O)N[C@@H](CCCNC(=N)N)C(=O)N1)C(C)C)[C@@H](C)CC)C(=O)N[C@@H](CO)C(=O)NCC(=O)NCC(=O)N[C@@H](CO)C(=O)N[C@@H](CCCNC(=N)N)C(=O)N[C@@H](Cc1c[nH]c2ccccc12)C(=O)O [Disulfide bridge stapled analogue] (Ac-SGL[αMeC]YIR[αMeC]VIYISGGSRW-OH; disulfide 4-8; C-terminus assumed)
EC50 (RXFP4 [1]): 145 nM
Ki (RXFP4 [3]): 46.8 nM

CC[C@H](C)[C@@H]1NC(=O)[C@H](Cc2ccccc2)NC(=O)[C@H](CCC(=O)O)NC(=O)[C@H](CCCNC(=N)N)NC(=O)CNC(=O)[C@@H](NC(=O)[C@H](CC(C)C)NC(=O)[C@H](CCCNC(=N)N)NC(=O)[C@@H](NC(=O)CNC(=O)[C@H](Cc2ccc(O)cc2)NC(=O)[C@@H]2CCCN2C(=O)[C@H](C)NC(=O)[C@H](C)NC(=O)[C@@H](N)CCCNC(=N)N)C(C)C)CSSC[C@@H]2NC(=O)[C@@H](NC(=O)[C@H](CO)NC(=O)[C@H](CO)NC(=O)[C@H](CO)NC(=O)[C@H](CC(C)C)NC(=O)CNC(=O)[C@H](C)NC(=O)[C@H](CC(C)C)NC(=O)[C@@H](NC(=O)[C@@H](N)CC(=O)O)C(C)C)CSSC[C@H](NC(=O)CNC(=O)[C@H](Cc3c[nH]c4ccccc34)NC(=O)[C@H](CCCCN)NC2=O)C(=O)N[C@@H](CO)C(=O)N[C@@H](CCCCN)C(=O)N[C@@H](CO)C(=O)N[C@@H](CCC(=O)O)C(=O)N[C@@H]([C@@H](C)CC)C(=O)N[C@@H](CO)C(=O)N[C@@H](CO)C(=O)N[C@@H](CC(C)C)C(=O)N[C@H](C(=O)O)CSSC[C@@H](C(=O)NCC(=O)NCC(=O)N[C@@H](CO)C(=O)N[C@@H](CCCNC(=N)N)C(=O)N[C@@H](Cc2c[nH]c3ccccc23)C(=O)O)NC(=O)[C@H]([C@@H](C)O)NC(=O)[C@H](Cc2ccccc2)NC(=O)[C@H]([C@@H](C)CC)NC(=O)[C@H](C(C)C)NC(=O)[C@H](C)NC(=O)[C@H](CCCNC(=N)N)NC1=O [H3 relaxin]
cAMP pEC50 (RXFP4 [1]): 8.94 ± 0.13 (4)
cAMP pEC50 (RXFP3 [2]; Table 2): 9.08 ± 0.07 (5)
Eu-H3B1-22R pKi (RXFP3 [4]; Table 2): 7.64 ± 0.09 (4)^

SGLEYIRTVIYISGGSRW-OH [Linear B-chain, S-G-L-E-Y-I-R-T-V-I-Y-I-S-G-G-S-R-W-OH]
Eu-R3/I5 pKi (RXFP4 [3]; RXFP4, Table 5): No binding (3)

B1: Linear B-chain (INSL5 B chain analogue, Formula IV) (peptide)
peptide: SGLEYIRTVIYISGGSRW-OH
notes: Residues numbered 7-24 after the native INSL5 B chain; also called control
cAMP pEC50 [5]: < 5
binding result [6]: no binding

SGLKYIRDVIYISGASRW (lactam 4-8) [Lactam Bridge stapled analogue (INSL5 B-chain, Formula VII)]
pKi [7]: 6.45

B2: INSL5-A13: B7-24_G20/21 (two-chain G20/21 analogue) (ligand)
chain 1: CTDGASMKDLSALC
chain 2: CGLEYIRTVIYICGGSRW
notes: GlyGly at positions B20 and B21; also called Formula III
cAMP pEC50 [5]: 8.93
pKi [7]: 8.64

B3: INSL5-A13: B7-24 (reduced two chain analogue) (ligand)
chain 1: CTDGASMKDLSALC
chain 2: CGLEYIRTVIYICASSRW
modifications: not fully specified; cysteine pairing not given here
notes: also called Formula II
cAMP pEC50 [5]: 8.08
pKi [7]: 8.06

SGREFIRAVIFTSR (14 residues) [H3B10-22R13/17EA (Formula XII, truncated form of H3B1-22R)]
binding result [8]: no binding
pKi [9]: 6.08

SGRFFIRFVIFTSR (14 residues) [H3B10-22R13/17FF (Formula XIII, non-alpha-methylated analogue of Formula X)]
binding result [8]: no binding
pKi [9]: 6.67

Ac-SGL[αMeC]YIR[αMeC]VIYISGGSRW (disulfide 4-8, also called disulfide stapled analogue) [Disulfide bridge stapled analogue (INSL5 B-chain, Formula IX)]
cAMP pEC50 [5]: 6.84
pKi [6]: 7.33

B4: INSL5-A13 (two-chain INSL5 analogue, RXFP4 agonist) (ligand)
chain 1: CTDGASMKDLSALC
chain 2: KESVRLCGLEYIRTVIYICASSRW
modifications: disulfide I:1-II:7, I:14-II:19
notes: Disulfide bonds: Cys 1 of A chain to Cys 7 of B chain; Cys 14 of A chain to Cys 19 of B chain; also called Analogue 13; two chain agonist
cAMP pEC50 [5]: 8.1
pKi [7]: 8.11
pKi [6]: 7.46

B5: Native INSL5 (human insulin-like peptide 5) (ligand)
chain 1: ZDLQTLCCTDGCSMTDLSALC
chain 2: KESVRLCGLEYIRTVIYICASSRW
cAMP pEC50 [5]: 8.34
pKi [7]: 8.47
pKi [6]: 8.43

B6: αF stapled analogue (INSL5 B-chain, Formula V) (peptide)
peptide: SGL[αMeF]YIR[αMeF]VIYISGGSRW
notes: 18-residue RXFP4 agonist; also called aF stapled analogue; πI5B
cAMP pEC50 [5]: 7.06
pKi [7]: 7.51
pKi [6]: 6.8

Ac-SGL[S5]YIR[S5]VIYISGASRW (staple 4-8) [Hydrocarbon stapled analogue (INSL5 B-chain, Formula VI)]
cAMP pEC50 [5]: 6.18
pKi [7]: 6.81

B7: πI5B7-24-GG-S19E (peptide)
peptide: SGL[αMeF]YIR[αMeF]VIYIEGGSRW
notes: 18-residue RXFP4 agonist with two αF residues and glutamic acid at residue 19 (numbering of native INSL5 B chain)
cAMP pEC50 [5]: 7.39
pKi [7]: 8.13
